Experimental data: patent US20240092867A1 (UNIVERSITY OF CHICAGO, published 2024)

Columns and labels:
[1] = molecular target: T1, placental growth factor (PlGF)-1 (human, UniProt P49763-2 19-149); assay: ELISA, HBD peptide coated
T1 construct: mature; Purchased in mature form
T1 sequence (looked up): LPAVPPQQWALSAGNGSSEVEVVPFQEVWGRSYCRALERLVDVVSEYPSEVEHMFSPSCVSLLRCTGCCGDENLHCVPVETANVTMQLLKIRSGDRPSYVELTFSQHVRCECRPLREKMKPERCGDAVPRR
Description: (§1) ELISA tests were performed as described above. […] After blocking with 2% BSA solution containing PBS-T, 1 μg/mL of the recombinant human proteins VEGF-A121, VEGF-A165, PlGF-1, PlGF-2, PDGF-BB, FGF-2, CXCL-12α and CXCL-12γ were added. 1 μg/mL of BSA served as non-binding protein control. Bound GF or chemokine was detected with biotinylated antibodies for human VEGF-A, PlGF, PDGF-BB, FGF-2, or CXCL-12 (R & D Systems). The antibodies were detected by streptavidin-HRP (R & D Systems). Color development and the absorbance measurement were done as described above.

[2] = molecular target: T2, vascular endothelial growth factor (VEGF)-A121 (human, UniProt P15692-9 27-147); assay: ELISA, HBD peptide coated
T2 construct: mature; Purchased in mature form, not glycosylated
T2 sequence (looked up): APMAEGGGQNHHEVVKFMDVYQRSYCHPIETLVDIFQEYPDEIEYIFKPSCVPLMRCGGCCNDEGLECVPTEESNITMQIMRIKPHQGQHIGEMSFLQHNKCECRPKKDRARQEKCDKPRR
Description: as §1

human plasma-derived vWF = molecular target: T3, human plasma-derived vWF (human, UniProt P04275 764-2813); assay: ELISA, vWF coated 50 nM, VEGF-A 1 µg/mL
T3 construct: mature; also called plasma-derived purified vWF; von Willebrand factor
Description: (§2) ELISA was performed as previously reported1. […] After blocking with 2% BSA solution containing PBS-T, 1 μg/mL of recombinant human VEGF-A121 (PeproTech), recombinant human VEGF-A145 (R & D Systems), or recombinant human VEGF-A165 (PeproTech) was added. Bound VEGF-A was detected with 1 μg/mL of mouse anti-human VEGF-A antibody (clone: 26503, R & D systems). After 60 min of incubation, horseradish peroxidase (HRP) conjugated goat anti-mouse antibody (1:2000 dilution, Dako) was added and incubated for another 60 min. Color development and the absorbance measurement were done as described above.

[3] = molecular target: T4, recombinant human vWF A2 domain (human, UniProt P04275 1498-1665); assay: ELISA, domain coated 50 nM
T4 construct: domain: A2
Description: as §2

[4] = molecular target: T5, recombinant human vWF A3 domain (human, UniProt P04275 1683-1874); assay: ELISA, domain coated 50 nM
T5 construct: domain: A3
Description: as §2

[5] = molecular target: T6, recombinant human vWF A1 domain (human, UniProt P04275 1261-1468, limits assumed); assay: ELISA, domain coated 50 nM, VEGF-A 1 µg/mL
T6 construct: domain: A1; also called vWF A1 recombinant protein; recombinant A1 domain
Description: as §2

[6] = molecular target: T7, recombinant human syndecan-3 (human, UniProt O75056 48-387, limits assumed); assay: ELISA, peptide coated, anti-His detection
T7 construct: Histidine tag of unstated position and length
Description: (§3) ELISA tests were performed as described above. In brief, ELISA plates were coated with 1 μg/mL laminin peptide (sequences are described in Table 1, chemically synthesized by Genscript) in PBS for 2 hrs at 37° C. 1 μg/mL of BSA served as non-binding protein control. After blocking with 2% BSA PBS-T solution, 1 μg/mL of the recombinant human syndecan-1, syndecan-2, syndecan-3, syndecan-4 (all syndecan proteins are histidine-tagged; SinoBiological) were added. Bound GF was detected with anti-histidine tag antibody (1:1000 dilution, BioLegend).

[7] = molecular target: T8, recombinant human syndecan-4 (human, UniProt P31431 19-145, limits assumed); assay: ELISA, peptide coated, anti-His detection
T8 construct: Histidine tag of unstated position and length
T8 sequence (looked up): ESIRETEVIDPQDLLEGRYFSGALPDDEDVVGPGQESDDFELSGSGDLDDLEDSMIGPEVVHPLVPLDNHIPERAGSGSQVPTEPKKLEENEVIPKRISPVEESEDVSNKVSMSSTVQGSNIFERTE
Description: as §3

[8] = molecular target: T9, recombinant human syndecan-1 (human, UniProt P18827 23-254, limits assumed); assay: ELISA, peptide coated, anti-His detection
T9 construct: Histidine tag of unstated position and length
T9 sequence (looked up): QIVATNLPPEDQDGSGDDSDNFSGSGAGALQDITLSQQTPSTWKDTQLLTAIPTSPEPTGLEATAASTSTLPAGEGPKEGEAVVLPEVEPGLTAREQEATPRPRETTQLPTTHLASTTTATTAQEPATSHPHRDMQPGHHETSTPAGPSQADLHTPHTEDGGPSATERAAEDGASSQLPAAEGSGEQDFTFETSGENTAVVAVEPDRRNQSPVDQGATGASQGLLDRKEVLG
Description: as §3

[9] = molecular target: T10, recombinant human syndecan-2 (human, UniProt P34741 19-144, limits assumed); assay: ELISA, peptide coated, anti-His detection
T10 construct: Histidine tag of unstated position and length
Description: as §3

[10] = molecular target: T11, placental growth factor (PlGF)-2 (human, UniProt P49763-3 19-170); assay: ELISA, peptide coated, GF 1 µg/mL
T11 construct: mature; Purchased in mature form
T11 sequence (looked up): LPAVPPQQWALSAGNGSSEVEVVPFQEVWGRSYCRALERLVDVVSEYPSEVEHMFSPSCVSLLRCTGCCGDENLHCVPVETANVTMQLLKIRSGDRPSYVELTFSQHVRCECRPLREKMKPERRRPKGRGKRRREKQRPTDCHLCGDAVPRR
Procedure, shortened: (§4)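 Wells coated with 10 μg/mL laminin α3/α4/α5 LG-domain peptides, BSA-coated wells as non-binding control, blocked with 2% BSA PBS-T. Recombinant human GFs added at 1 μg/mL; bound GF detected with GF-specific biotinylated antibody plus streptavidin-HRP (n=4, mean±SEM).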

[11] = molecular target: T12, fibroblast growth factor (FGF)-2 (human, UniProt P09038 143-288); assay: ELISA, peptide coated, GF 1 µg/mL
T12 construct: mature; Purchased in mature form
Procedure, shortened: as §4

[12] = molecular target: T13, vascular endothelial growth factor (VEGF)-A165 (human, UniProt P15692-4 27-191); assay: ELISA, peptide coated, GF 1 µg/mL
T13 construct: mature; Purchased in mature form, not glycosylated
Procedure, shortened: as §4

[13] = molecular target: T14, platelet-derived growth factor (PDGF)-BB (human, UniProt P01127 82-190); assay: ELISA, peptide coated, GF 1 µg/mL
T14 construct: mature; Purchased in mature form
Procedure, shortened: as §4

[14] = molecular target: T1, placental growth factor (PlGF)-1; assay: ELISA, peptide coated
Procedure, shortened: as §4

[15] = molecular target: T2, vascular endothelial growth factor …; assay: ELISA, peptide coated
Procedure, shortened: as §4

bovine type I collagen [16] = molecular target: T15, bovine type I collagen (bovine, UniProt P02453 178-1191; P02465 89-1102); assay: ELISA on coated bovine type I collagen (10 µg/mL), FabCol titrated, HRP-anti-human Fab; table headed 'Estimated KD (nM)' [panel C]
T15 construct: PureCol, Advanced BioMatrix; coated on the plate; also called collagen I; PureCol
Description: (§5) ELISA plates (NUNC MaxiSorp, ThermoFisher Scientific) were coated overnight with 10 μg/mL of bovine type I collagen (PureCol, Advanced BioMatrix, San Diego CA, USA) at room temperature. The plate was further blocked using 2% bovine serum albumine (BSA) for 2 h at room temperature. […] The plate was washed thrice in PBST, and an horseradish peroxidase-conjugated anti-human Fab antibody (Jackson ImmunoResearch,) was used to detect bound FabCol variants. […] Absorbance at 450 nm was read using […], and corrected using the absorbance at 570 nm. Curve fits and dissociation constant KD were computed using Prism (GraphPad Software Inc., USA).

[17] = molecular target: T11, placental growth factor (PlGF)-2; assay: ELISA; growth factors coated at 100 nM, FabCol variants at 100 nM in solution, HRP-anti-human Fab [panel F]
[18] = molecular target: T13, vascular endothelial growth factor …; assay: as above
mVEGF-C = molecular target: T16, mVEGF-C (mouse, UniProt P97953); assay: as above
T16 construct: also called mouse wild-type VEGF-C
T16 sequence (growth factor chain, looked up): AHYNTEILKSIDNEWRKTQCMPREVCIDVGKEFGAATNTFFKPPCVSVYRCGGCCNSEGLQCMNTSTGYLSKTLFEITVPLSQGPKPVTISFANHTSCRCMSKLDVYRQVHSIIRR

[19] = molecular target: T14, platelet-derived growth factor (PDGF)-BB; assay: as above
[20] = molecular target: T1, placental growth factor (PlGF)-1; assay: as above
bovine type I collagen [21] = molecular target: T15, bovine type I collagen; assay: ELISA on coated bovine type I collagen (10 µg/mL), FabCol titrated 0.01-30 nM, HRP-anti-human Fab; table headed 'Estimated KD (nM)' [panel C]
Description: as §5

bovine type I collagen [22] = molecular target: T15, bovine type I collagen; assay: ELISA on coated bovine type I collagen (10 µg/mL), FabCol titrated 0.01-30 nM, HRP-anti-human Fab [panel C]
Description: as §5

bovine type I collagen [23] = molecular target: T15, bovine type I collagen; assay: ELISA on coated bovine type I collagen (10 µg/mL), FabCol titrated, HRP-anti-human Fab [panel C]
Description: as §5

recombinant human BMP-2 = molecular target: T17, recombinant human BMP-2 (human, UniProt P12643 283-396); assay: ELISA, rhBMP-2 coated 50 nM
T17 construct: also called rhBMP-2
T17 sequence (P12643 283-396 limits assumed): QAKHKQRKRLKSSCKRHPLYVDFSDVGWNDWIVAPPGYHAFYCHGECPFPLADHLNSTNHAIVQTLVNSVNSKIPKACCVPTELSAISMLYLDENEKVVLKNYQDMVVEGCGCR
Description: ELISA plates (NUNC MaxiSorp) were coated with 50 nM of recombinant human BMP-2 (CHO produced, R&D Systems, Minneapolis MN, USA) overnight at room temperature.

T15 sequence (P02453 178-1191, chain 1 of 2): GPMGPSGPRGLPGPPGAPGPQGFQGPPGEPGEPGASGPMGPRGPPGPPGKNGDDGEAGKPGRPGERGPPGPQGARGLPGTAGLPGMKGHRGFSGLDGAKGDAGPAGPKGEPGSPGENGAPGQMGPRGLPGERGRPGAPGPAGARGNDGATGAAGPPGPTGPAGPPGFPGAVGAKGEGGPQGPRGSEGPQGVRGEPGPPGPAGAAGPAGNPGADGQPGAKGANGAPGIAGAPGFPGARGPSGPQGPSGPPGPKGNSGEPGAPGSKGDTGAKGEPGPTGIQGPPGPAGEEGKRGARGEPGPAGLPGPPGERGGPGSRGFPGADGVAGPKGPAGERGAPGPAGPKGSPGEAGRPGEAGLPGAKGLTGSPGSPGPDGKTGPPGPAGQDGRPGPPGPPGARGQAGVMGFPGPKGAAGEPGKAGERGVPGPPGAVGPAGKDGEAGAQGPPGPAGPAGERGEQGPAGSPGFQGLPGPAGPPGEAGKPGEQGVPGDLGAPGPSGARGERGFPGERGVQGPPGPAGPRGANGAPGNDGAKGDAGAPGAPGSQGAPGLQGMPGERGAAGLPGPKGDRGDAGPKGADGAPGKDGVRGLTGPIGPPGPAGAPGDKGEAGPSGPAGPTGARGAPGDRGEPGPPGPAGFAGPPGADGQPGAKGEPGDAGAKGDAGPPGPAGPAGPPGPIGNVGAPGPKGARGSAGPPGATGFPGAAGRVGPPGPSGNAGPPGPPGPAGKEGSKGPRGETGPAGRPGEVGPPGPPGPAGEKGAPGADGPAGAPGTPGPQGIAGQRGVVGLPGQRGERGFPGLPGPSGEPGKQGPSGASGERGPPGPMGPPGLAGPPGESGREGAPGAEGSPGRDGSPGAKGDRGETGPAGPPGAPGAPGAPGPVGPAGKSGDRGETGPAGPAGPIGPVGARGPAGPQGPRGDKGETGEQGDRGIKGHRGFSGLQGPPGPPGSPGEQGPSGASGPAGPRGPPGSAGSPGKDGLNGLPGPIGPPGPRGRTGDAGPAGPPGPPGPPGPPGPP
T15 sequence (P02465 89-1102, chain 2 of 2): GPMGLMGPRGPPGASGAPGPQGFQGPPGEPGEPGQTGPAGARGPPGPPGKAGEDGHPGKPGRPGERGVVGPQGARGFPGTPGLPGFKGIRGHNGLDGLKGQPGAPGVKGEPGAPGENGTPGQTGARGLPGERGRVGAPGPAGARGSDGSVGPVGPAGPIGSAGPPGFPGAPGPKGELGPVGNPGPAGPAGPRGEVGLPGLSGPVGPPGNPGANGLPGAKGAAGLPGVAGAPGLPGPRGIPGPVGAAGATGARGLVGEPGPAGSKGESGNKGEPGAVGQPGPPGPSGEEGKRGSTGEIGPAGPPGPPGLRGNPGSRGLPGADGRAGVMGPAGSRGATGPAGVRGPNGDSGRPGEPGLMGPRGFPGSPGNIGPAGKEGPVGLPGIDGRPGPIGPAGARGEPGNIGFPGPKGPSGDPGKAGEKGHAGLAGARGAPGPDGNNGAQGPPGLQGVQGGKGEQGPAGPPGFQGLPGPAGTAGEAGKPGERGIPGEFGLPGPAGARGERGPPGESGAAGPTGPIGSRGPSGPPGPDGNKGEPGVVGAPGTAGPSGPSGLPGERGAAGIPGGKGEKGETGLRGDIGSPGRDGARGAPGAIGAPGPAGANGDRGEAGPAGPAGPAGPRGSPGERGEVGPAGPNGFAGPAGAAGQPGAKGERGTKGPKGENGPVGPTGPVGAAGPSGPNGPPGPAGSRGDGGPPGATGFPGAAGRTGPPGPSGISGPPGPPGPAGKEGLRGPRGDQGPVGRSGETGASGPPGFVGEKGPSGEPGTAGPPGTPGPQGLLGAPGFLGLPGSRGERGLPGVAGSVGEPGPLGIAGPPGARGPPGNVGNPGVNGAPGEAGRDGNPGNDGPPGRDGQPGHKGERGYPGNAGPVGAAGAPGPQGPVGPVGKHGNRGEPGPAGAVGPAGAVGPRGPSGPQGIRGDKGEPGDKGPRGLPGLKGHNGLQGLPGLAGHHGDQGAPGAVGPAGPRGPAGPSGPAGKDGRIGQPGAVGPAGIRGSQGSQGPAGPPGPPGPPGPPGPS
T14 sequence (P01127 82-190): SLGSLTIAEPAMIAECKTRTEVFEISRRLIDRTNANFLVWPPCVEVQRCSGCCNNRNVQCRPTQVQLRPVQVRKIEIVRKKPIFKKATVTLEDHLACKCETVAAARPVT
T10 sequence (P34741 19-144 limits assumed): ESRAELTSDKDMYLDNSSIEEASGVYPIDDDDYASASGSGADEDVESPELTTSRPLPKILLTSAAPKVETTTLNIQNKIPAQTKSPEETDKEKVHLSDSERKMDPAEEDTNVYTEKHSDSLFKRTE
T7 sequence (O75056 48-387 limits assumed): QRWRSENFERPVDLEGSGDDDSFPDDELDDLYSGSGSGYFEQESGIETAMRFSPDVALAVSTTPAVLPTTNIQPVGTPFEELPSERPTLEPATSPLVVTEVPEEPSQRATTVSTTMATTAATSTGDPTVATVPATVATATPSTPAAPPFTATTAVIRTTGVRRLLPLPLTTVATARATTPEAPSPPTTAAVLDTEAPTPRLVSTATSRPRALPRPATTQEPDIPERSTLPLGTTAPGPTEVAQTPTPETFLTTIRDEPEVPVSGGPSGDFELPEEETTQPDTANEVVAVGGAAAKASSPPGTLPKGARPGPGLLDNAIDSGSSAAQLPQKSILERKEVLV
T12 sequence (P09038 143-288): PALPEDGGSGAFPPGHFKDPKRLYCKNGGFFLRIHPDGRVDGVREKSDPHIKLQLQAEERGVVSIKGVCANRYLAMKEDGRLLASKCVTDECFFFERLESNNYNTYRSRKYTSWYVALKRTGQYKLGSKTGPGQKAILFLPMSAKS

B1: vWF A1 HBD peptide (23 residues) (peptide)
peptide: YIGLKDRKRPSELRRIASQVKYA
notes: Chemically synthesized (Genscript); also called vWF HBD; vWF A1 peptide
- binding result [1]: no binding (tested: 1 µg/mL)
- binding result [2]: no binding (tested: 1 µg/mL)

B2: recombinant human VEGF-A145 (ligand, UniProt P15692-6 27-171, looked up)
chain: APMAEGGGQNHHEVVKFMDVYQRSYCHPIETLVDIFQEYPDEIEYIFKPSCVPLMRCGGCCNDEGLECVPTEESNITMQIMRIKPHQGQHIGEMSFLQHNKCECRPKKDRARQEKKSVRGKGKGQKRKRKKSRYKSWSVCDKPRR
- binding result (human plasma-derived vWF): binds
- binding result [3]: no binding (tested: 1 µg/mL)
- binding result [4]: no binding (tested: 1 µg/mL)
- binding result [5]: binds

Binder: TLPDVGLELEVR (Chemically synthesized (Genscript)) [laminin α5 3539-3550 peptide (LG5)]
- binding result [6]: no binding (tested: 1 µg/mL)
- binding result [7]: no binding (tested: 1 µg/mL)
- binding result [8]: no binding (tested: 1 µg/mL)
- binding result [9]: no binding (tested: 1 µg/mL)
- binding result [10]: binds
- binding result [11]: binds
- binding result [12]: binds
- binding result [13]: binds
- binding result [14]: no binding (tested: 1 µg/mL)
- binding result [15]: no binding (tested: 1 µg/mL)

B3: FabCol (Fab)
light: EIVLTQSPGTLSLSPGERATLSCRASQSVSSSYLAWYQQKPGQAPRLLIYGASSRATGIPDRFSGSGSGTDFTLTISRLEPEDFAVYYCQQAIGFPQTFGQGTKVEIKRTVAAPSVFIFPPSDEQLKSGTASVVCLLNNFYPREAKVQWKVDNALQSGNSQESVTEQDSKDSTYSLSSTLTLSKADYEKHKVYACEVTHQGLSSPVTKSFNRGEC
heavy: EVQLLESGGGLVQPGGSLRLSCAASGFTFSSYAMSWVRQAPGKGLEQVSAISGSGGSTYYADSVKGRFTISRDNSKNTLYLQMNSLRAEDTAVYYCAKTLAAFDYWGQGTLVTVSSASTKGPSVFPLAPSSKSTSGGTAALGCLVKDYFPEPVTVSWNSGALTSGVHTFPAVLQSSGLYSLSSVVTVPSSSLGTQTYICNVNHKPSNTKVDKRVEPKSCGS
notes: Human Fab with human Fab constant regions; also called non-conjugated FabCol; anti-collagen I Fab (clone C11)
- Kd (bovine type I collagen [16]): 0.3 nM
- binding result [17]: no binding (tested: 100 nM (single concentration))
- binding result [18]: no binding (tested: 100 nM (single concentration))
- binding result (mVEGF-C): no binding (tested: 100 nM (single concentration))
- binding result [19]: no binding (tested: 100 nM (single concentration))
- binding result [20]: no binding (tested: 100 nM (single concentration))
- Kd (bovine type I collagen [21]): 0.9 nM
- EC50 (read off the curve) (bovine type I collagen [22]): ~1 nM
- EC50 (read off the curve) (bovine type I collagen [23]): ~0.2 nM
- binding result (recombinant human BMP-2): no binding (tested: 50 nM)
